{"source": "paper doi:10.1101/2021.06.28.21259671", "key": {"[1]": {"target": "chimeric secretory component (CSC) of the polymeric immunoglobulin receptor (rabbit/human chimera)", "assay": "SEC"}, "[2]": {"target": "chimeric secretory component (CSC) of the polymeric immunoglobulin receptor (rabbit/human chimera)", "assay": "lateral flow assay"}}}
{"substance": "chimeric secretory component (CSC) of the polymeric immunoglobulin receptor", "values": [{"measurement": "stoichiometry N", "setting": "[1]", "result": 2}]}
{"substance": "CB6-dIgA2 (dimeric IgA2 form of the SARS-CoV-2 specific monoclonal antibody CB6, with J chain)", "values": [{"measurement": "limit of detection", "setting": "[2]", "result": 0.128, "unit": "µg/mL"}]}
{"substance": "CB6-dIgA1 (dimeric IgA1 form of the SARS-CoV-2 specific monoclonal antibody CB6, with J chain)", "values": [{"measurement": "limit of detection", "setting": "[2]", "result": 0.123, "unit": "µg/mL"}]}
